# Data published in patent publication US20240376225A1 (CHILDREN S MEDICAL CENTER, published 2024).
# Numbering of substitutions follows the chain as printed.
# T1: human CD21 protein (human, UniProt P20023 21-971, limits assumed)
# T1 construct: the Biacore set-up is not described; also called huCD21; CR2
# T1 sequence (looked up): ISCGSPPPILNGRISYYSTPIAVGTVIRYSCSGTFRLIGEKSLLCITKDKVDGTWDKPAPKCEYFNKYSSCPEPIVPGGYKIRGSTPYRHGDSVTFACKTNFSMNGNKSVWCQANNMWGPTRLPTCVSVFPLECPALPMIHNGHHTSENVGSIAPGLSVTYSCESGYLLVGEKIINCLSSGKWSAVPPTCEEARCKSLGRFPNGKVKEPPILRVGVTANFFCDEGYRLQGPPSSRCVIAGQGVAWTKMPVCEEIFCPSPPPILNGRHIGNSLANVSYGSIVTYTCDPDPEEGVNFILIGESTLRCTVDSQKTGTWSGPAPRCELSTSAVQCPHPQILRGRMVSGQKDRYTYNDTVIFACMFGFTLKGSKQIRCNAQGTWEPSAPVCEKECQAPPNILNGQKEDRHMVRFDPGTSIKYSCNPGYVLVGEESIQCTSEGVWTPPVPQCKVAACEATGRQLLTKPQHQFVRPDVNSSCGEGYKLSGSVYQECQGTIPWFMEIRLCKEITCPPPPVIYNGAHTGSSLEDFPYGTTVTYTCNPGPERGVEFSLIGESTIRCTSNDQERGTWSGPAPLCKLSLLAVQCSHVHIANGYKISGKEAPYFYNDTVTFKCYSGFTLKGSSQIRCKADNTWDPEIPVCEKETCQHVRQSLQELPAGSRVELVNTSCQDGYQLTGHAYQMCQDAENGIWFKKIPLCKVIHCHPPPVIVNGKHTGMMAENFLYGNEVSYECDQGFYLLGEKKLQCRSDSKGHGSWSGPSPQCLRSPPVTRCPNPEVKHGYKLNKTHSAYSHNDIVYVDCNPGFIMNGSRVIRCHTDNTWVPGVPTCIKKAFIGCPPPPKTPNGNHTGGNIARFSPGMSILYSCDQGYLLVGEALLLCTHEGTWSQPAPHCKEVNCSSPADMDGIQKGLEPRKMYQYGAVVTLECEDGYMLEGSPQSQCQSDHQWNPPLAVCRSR
# T2: human CD21 on Raji B cells or primary B cells (human, UniProt P20023 21-1033)
# T2 construct: whole, on cells; also called cell-surface human CD21; Raji cells
# T2 sequence (looked up): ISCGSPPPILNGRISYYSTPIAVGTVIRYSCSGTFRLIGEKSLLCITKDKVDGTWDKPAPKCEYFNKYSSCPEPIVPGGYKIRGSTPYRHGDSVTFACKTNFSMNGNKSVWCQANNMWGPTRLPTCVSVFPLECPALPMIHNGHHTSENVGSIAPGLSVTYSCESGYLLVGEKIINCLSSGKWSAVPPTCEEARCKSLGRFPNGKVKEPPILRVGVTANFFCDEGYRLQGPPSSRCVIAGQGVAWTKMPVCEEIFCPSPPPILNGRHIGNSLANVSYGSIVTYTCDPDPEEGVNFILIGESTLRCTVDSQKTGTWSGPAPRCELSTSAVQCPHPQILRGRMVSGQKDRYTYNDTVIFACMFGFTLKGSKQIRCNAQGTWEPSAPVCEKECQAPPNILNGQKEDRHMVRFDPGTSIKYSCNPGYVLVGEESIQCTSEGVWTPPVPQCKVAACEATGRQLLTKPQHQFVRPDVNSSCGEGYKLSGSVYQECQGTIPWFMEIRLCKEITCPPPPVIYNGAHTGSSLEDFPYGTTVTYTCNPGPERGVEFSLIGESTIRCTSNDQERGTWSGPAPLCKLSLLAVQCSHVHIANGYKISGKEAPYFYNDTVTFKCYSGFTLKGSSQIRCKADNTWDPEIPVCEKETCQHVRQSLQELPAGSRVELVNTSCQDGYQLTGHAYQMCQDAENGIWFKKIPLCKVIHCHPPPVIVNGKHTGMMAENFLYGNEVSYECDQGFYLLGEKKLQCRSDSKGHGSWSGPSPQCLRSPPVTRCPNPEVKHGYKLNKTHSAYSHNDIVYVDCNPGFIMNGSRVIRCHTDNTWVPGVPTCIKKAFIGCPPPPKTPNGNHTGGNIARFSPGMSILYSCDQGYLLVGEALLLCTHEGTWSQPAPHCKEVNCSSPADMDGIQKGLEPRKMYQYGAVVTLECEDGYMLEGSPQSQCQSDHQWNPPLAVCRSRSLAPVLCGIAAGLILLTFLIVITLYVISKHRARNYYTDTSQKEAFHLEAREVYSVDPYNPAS
# B1: Ab204 (antibody, human IgG1, kappa, V domains shown)
# VH: QVQLVQSGAEVKKPGSSVKVSCKASGGELQDLAISWVRQAPGQGLEWMGRIIPILGIANYAQKFQGRVTITADKSTSTAYMELSSLRSEDTAVYYCAREDDISGYYQDWGQGTLVTVSS
# VL: EIVMTQSPATLSVSPGERATLSCRAGQSINSHLAWYQQKPGQAPRLLIYDASTRATGIPARFSGSGSGTEFTLTISSLQSEDFAVYYCQQYEYWYTFGQGTKLEIKR
# notes: full-length human IgG1
# B2: Ab194 (antibody, human IgG1, kappa, V domains shown)
# VH: B1 VH with E28T, L29F, Q30S, D31T, L32Y, I102S
# VL: B1 VL with H32Y
# notes: full-length human IgG1
# B3: Ab416 (antibody, human IgG1, kappa, V domains shown)
# VH: B1 VH with E28T, L29F, Q30S, D31S, L32Y, I102S
# VL: B1 VL with H32Y
# notes: IgG1
# B4: Ab420 (antibody, human IgG1, kappa, V domains shown)
# VH: B1 VH with E28T, L29F, Q30S, D31S, L32Y
# VL: B1 VL
# notes: IgG1
# B5: Ab417 (antibody, human IgG1, kappa, V domains shown)
# VH: B1 VH
# VL: B1 VL with H32Y
# notes: IgG1
# B6: Ab422 (antibody, human IgG1, kappa, V domains shown)
# VH: B1 VH with D31T
# VL: B1 VL with H32Y
# notes: IgG1
# B7: Ab421 (antibody, human IgG1, kappa, V domains shown)
# VH: B1 VH with E28T, L29F, Q30S, D31T, L32Y
# VL: B1 VL
# notes: IgG1
# B8: Ab419 (antibody, human IgG1, kappa, V domains shown)
# VH: B1 VH with D31T
# VL: B1 VL
# notes: IgG1
# B9: Ab424 (antibody, human IgG1, kappa, V domains shown)
# VH: B1 VH with E28T, L29F, Q30S, D31T, L32Y
# VL: B1 VL with H32Y
# notes: IgG1
# B10: Ab628 (antibody, human IgG1, kappa, V domains shown)
# VH: B1 VH with E28T, L29F, Q30S, D31S, L32Y, D100E
# VL: B1 VL with N30S, S31H, H32Y, T96S
# notes: IgG1
# B11: Ab632 (antibody, human IgG1, kappa, V domains shown)
# VH: B1 VH with E28T, L29F, Q30S, D31S, L32Y, D100E
# VL: B1 VL with N30S, S31H, H32Y, T53S, T96S
# notes: IgG1
# B12: Ab633 (antibody, human IgG1, kappa, V domains shown)
# VH: B1 VH with E28T, L29F, Q30S, D31S, L32Y, D100E
# VL: B1 VL with N30S, S31R, H32Y, T53S, T96S
# notes: IgG1
# B13: Ab630 (antibody, human IgG1, kappa, V domains shown)
# VH: B1 VH with E28T, L29F, Q30S, D31S, L32Y, D100E
# VL: B1 VL with E1D, N30S, H32Y, T53S, T96S
# notes: IgG1
# B14: Ab631 (antibody, human IgG1, kappa, V domains shown)
# VH: B1 VH with E28T, L29F, Q30S, D31S, L32Y, D100E
# VL: B1 VL with S28K, N30S, H32Y, T53S, T96S
# notes: IgG1
# B15: Ab627 (antibody, human IgG1, kappa, V domains shown)
# VH: B1 VH with E28T, L29F, Q30S, D31S, L32Y, D100E
# VL: B1 VL with S28K, N30S, H32Y, T96S
# notes: IgG1
# B16: Ab629 (antibody, human IgG1, kappa, V domains shown)
# VH: B1 VH with E28T, L29F, Q30S, D31S, L32Y, D100E
# VL: B1 VL with N30S, S31R, H32Y, T96S
# notes: IgG1
# Target: T1, human CD21 protein
# Experiment: SPR (Biacore)
row,Kd,Binder
1,0.81 nM,B1
2,0.81 nM,B2

# Target: insulin (UniProt P01308)
# Sequence (P01308 25-54 limits assumed, chain 1 of 2): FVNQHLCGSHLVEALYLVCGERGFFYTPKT
# Sequence (P01308 90-110 limits assumed, chain 2 of 2): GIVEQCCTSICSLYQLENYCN
# Experiment: polyreactivity ELISA on coated insulin; third number of the cell
row,insulin-binding score (ratio to buffer well),Binder
1,2,B3
2,2,B4
3,2,B5
4,2,B6
5,2,B7
6,2,B8
7,2,B9

# Target: cyno CD21 protein (cynomolgus monkey)
# Experiment: SPR (Biacore)
row,Kd,Binder
1,0.06 nM,B1
2,9.16 nM,B2

# Target: T1, human CD21 protein
# Experiment: affinity KD; method not restated (Biacore elsewhere)
row,Kd,Binder
1,0.78 nM,B3
2,0.01 nM,B10
3,0.01 nM,B11
4,0.02 nM,B12
5,2.26 nM,B4
6,0.02 nM,B5
7,0.04 nM,B6
8,0.01 nM,B13
9,2.26 nM,B7
10,0.03 nM,B14
11,0.02 nM,B15
12,2.38 nM,B8
13,0.05 nM,B9
14,0.02 nM,B16

# Target: cyno CD21 protein (cynomolgus monkey)
# Experiment: SPR (Biacore)
# Remark: another data set of the same source
row,Kd,Binder
1,9.13 nM,B3
2,0.22 nM,B4
3,0.08 nM,B5
4,0.24 nM,B6
5,0.25 nM,B7
6,0.21 nM,B8
7,0.03 nM,B9

# Target: T2, human CD21 on Raji B cells or primary B …
# Experiment: competition with human C3d on primary B cells
row,IC50,Binder
1,0.007 nM,B1
2,0.006 nM,B2

# Target: T1, human CD21 protein
# Experiment: SPR (Biacore), KD against Ab89
row,fold improvement of affinity over Ab89,Binder
1,~81 fold,B1
2,~81 fold,B2

# Target: T2, human CD21 on Raji B cells or primary B …
# Experiment: cell-based or functional assay
"pAKT inhibition, IC50, nM; Primary B cells","pAKT inhibition, IC50, nM; Raji B cells",Binder
14.6 nM,8.59 nM,B3
61.1 nM,26.2 nM,B4
3.94 nM,8.91 nM,B5
9.98 nM,15.8 nM,B6
56.2 nM,8.59 nM,B7
47.8 nM,11.2 nM,B8
11.6 nM,9.38 nM,B9

# Target: cyno CD21 protein (cynomolgus monkey)
# Experiment: SPR (Biacore), KD against Ab89
row,fold improvement of KD over Ab89,Binder
1,357 fold,B1
2,2 fold,B2

# Target: T1, human CD21 protein
# Experiment: SPR (Biacore)
# Remark: another data set of the same source
row,Kd,Binder
1,0.78 nM,B3
2,2.26 nM,B4
3,0.02 nM,B5
4,0.04 nM,B6
5,2.26 nM,B7
6,2.38 nM,B8
7,0.05 nM,B9

# Target: T2, human CD21 on Raji B cells or primary B …
# Experiment: cell-based or functional assay
# Remark: another data set of the same source
"pAKT inhibition, IC50, nM; Primary B cells","pAKT inhibition, IC50, nM; Raji B cells",Binder
14.6 nM,8.59 nM,B3
11.7 nM,,B10
4.43 nM,,B11
61.1 nM,26.2 nM,B4
3.94 nM,8.91 nM,B5
9.98 nM,15.8 nM,B6
56.2 nM,8.59 nM,B7
47.8 nM,11.2 nM,B8
11.6 nM,9.38 nM,B9

# Target: T2, human CD21 on Raji B cells or primary B …
# Experiment: competition with human C3d on Raji B cells
row,IC50,Binder
1,0.005 nM,B1
2,0.009 nM,B2

# Target: cyno CD21 protein (cynomolgus monkey)
# Experiment: affinity KD; method not restated (Biacore elsewhere)
row,Kd,Binder
1,9.73 nM,B3
2,0.11 nM,B10
3,0.08 nM,B11
4,0.12 nM,B12
5,0.22 nM,B4
6,0.08 nM,B5
7,0.24 nM,B6
8,0.09 nM,B13
9,0.25 nM,B7
10,0.19 nM,B14
11,0.15 nM,B15
12,0.21 nM,B8
13,0.03 nM,B9
14,0.1 nM,B16
